Experimental data: patent US20240294668A1 (SHANGHAI SYNVIDA BIOTECHNOLOGY, published 2024)

What was measured:
[1] = biological target: T1, human FIXa (activated coagulation factor IX) (human, UniProt P00740 47-191; P00740 227-461); assay: ELISA, FIXa antigen coated on the plate, anti-mouse secondary antibody, OD450
T1 construct: The docking used only the catalytic domain (PDB 3LC3); also called FIXa antigen; FIXa protein
Experimental: After culturing hybridoma cells for 7 days, ELISA was used for detecting positive antibodies. 0.1 μg/100 μl of FIXa antigen was coated on an ELISA plate (CORNING), incubated at 37° C. for 1.5 h; then blocked with 2% BSA at 37° C. for 1 h; and then primary antibody, the supernatant of cultured cells, was added and incubated at 37° C. for 1.5 h. After that, mouse secondary antibody was added and incubated at 37° C. for 30 min. Finally, chromogenic substrate TMB (Thermo) was added for 5 min at room temperature in dark, then stop solution 2M H₂SO₄ was added to terminate the reaction. Antibody-positive cell lines were screened according to the absorbance value measured at 450 nm by a spectrophotometer (Thermo Fisher scientific company). Then the cell lines were cultured for cloning in a semi-solid medium ([…] company), with single clones selected into 96-well plates after 7 days. […]
Following the instructions provided in the Sigma company's subtype detection kit, the antigen was coated, blocked, incubated with primary antibody (0.1 μg/100 μl), incubated with isotype-specific reagent at room temperature for 30 minutes, incubated with secondary antibody (R-antiGoat-HRP) for chromogen development, with stop solution added to terminate the reaction, and finally the absorbance was measured at 450 nm. […]

[2] = biological target: T1, human FIXa (activated coagulation …); assay: cell-based or functional assay

T1 sequence (P00740 47-191 limits assumed, chain 1 of 2): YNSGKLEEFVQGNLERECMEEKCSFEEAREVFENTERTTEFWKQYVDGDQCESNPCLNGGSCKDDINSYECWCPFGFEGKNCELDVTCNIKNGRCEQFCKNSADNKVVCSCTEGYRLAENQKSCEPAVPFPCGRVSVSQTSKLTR
T1 sequence (P00740 227-461 limits assumed, chain 2 of 2): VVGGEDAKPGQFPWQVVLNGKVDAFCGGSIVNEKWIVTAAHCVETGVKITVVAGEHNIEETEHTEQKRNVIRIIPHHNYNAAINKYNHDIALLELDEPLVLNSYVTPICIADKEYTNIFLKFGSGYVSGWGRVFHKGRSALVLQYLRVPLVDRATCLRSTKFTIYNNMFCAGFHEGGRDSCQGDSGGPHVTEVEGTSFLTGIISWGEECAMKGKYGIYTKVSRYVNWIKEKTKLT

B1: FIXa-4 antibody (antibody, V domains shown)
VH: QVTLKESGPGILKPSQTLSLTCSFSGFSLNTPGMGVGWIRQPSGKGLEWLAHIWWDDDKYYNPSLKSQLTISKDTSRNQVFLKITSVDTADTATYYCARSDDVSYALDYWGQGTSVTVSS
VL: DIQMTQSPASLSASVGETVTITCRASENIDSYLAWYQQKQGKSPQLLVYNAKTLADGVPSRFSGSGSGTQFSLKIDSLQPEDFGSHYCQHHDGTTWTFGGGTKLEIK
notes: A subtype test is described, but the isotype and constant regions are not reported; also called anti-FIXa monoclonal antibody; FIX-4 antibody
- EC50 [1]: 0.0947 µg/mL
- activated partial thromboplastin time (APTT), IC50 [2]: 7.71 µg/mL
- activated partial thromboplastin time (APTT), fold over control [2]: 3.5 times
